In a protein production outcome set (Wang et al. 2014):

Assay: label from the status in PepcDB records

In the case of “MEQLQVGQVTLTWLNGGVTHLDGGAMFGVVPKPLWSKKYPPNDQNQIELRTDPILVEAGGKRLLIESGIGNGKLTDKQKRNFGVTEESSLDESLAALGLTRGDIDIVIMTHLHFDHACGLTVWEDGRLVPAFPRAAIITSDVEWEEMRAPNIRSRNTYWKENWEPIAEQVIPFTKETEVVSGIRLIHTGGHSAGHAIVLIESDGEMAIHLGDLLGTHAHQNVLWVMAYDDYPMDSIFAKQRWLPYGIERNAWFTFYHDAYYRAVKWREDGTIAEQVKRNRPTLLEHHHHHH”, the protein production is reported as “not failed”.
For “MVPAAMRGLNLALVDIGAGTSDIAITGQGTISGYAMVPSAGDEITEALASALILDFNTAERVKRQLSTRENLTFTDVVGQRHTLAAAELMEIIKPAVTELARQVATQIILLNGKPPQAVLLIGGGSLTPGLAAALAGQLEISPERVALEHHHHHH”, the protein production was “failed”.
For “MNPDFLGALLIGLVGAGHCMGMCGGIASLLSLGSSSSKSSPTIPLFYNLGRLSSYALIGALVGGAISGLSELSGLAQSLAWLRFVAAIFMILVALYIAKWWQGLLIVEKMGQHLWKFISPAGKSLLPLKKPIHALPFGFVWGWLPCGLVYSALTWSAVSGSAVNGGLIMLAFGLGTLPSMLAVGYGASHFQKLQKSLIFRNISALILIVYGAYTAAGAMQMLGFI”, the protein production was “failed”.
With “MSPIALNLLQSTPYQVGGSLAANHPSYSQREADRELLAQLRAGKFCYVFNCRQMGKSSLRVRAMHQLQQDGVVCVSIDITSLGTEADPQKWYNGIITQLYLGLPLAGKVALKPWLREREQLSPIQKLREFVETIILQTIGDRQIVIFIDEIDKVLSLPFSLDDFFSYIRFCYNQRADDHEYNRLSFALFGVATPSDLIDNKTQTPFNIGQAIALTGFTLTEALPLSAGLPVDEVSAREILGEILAWTGGQPFLTQKVCELVAEALQKGDLDCQSQTIATTIAQLIEEKIIRHWESNDEPVHFRTIGDRLLKDQARSGQLLGLYQEILHKGAIPADDSVEQTVLRLTGLVVKVKGQLRPYNPIYQAIFNAQWVSKELNKLRPYGTNLQAWINSNYQDSSRLLRGEALREALAWASSKNLSGVDYRYLNASQNQEQEASLAANQILTQANVKAKRMISFGIVVLMMSLGGSAIALSQAYFATLKQQRSQQGTELQRLGTSAQRQFTFDQIPGLVTALEAGNQLHHLVKADETLSQYPATSPLVSLQQILSQIAEKNVLTGHRDGVTSVAISSHKNLIASASRDGTVHLWTPQGEFLREFTGHTGSIYRVDFSPNGKIFATAGQDQTVKIWDLDGNLLQTLKGHQDSVYSVSFSPDGEILASTSRDRTVRLWHWRSGKTLAVLGGHTKSVDDAQFSPDGQTLVSVCRDGQIRLWDLDGNLIRQFGLPEVAFFGVNWHPNGNLLAVAADDGTVRLWTPQGEIKATLSGHDEFVTRVVFTPDGKQLFSSSSNGSVIHWSTSGKMLKKYQGYPEAIFGLALASNGALLAIGAENNLVKVWDMSPKSDLVNLNLPAVLGAVAENAKTNTIALAMENEPLILFNTKNRSRQFLSDASQNLDRLKFSADGQWLLGQRGRQWQLWQLQTKSQLLKTWRTDISRVYDVDLRTTPTSPQWAIAMATGSGEVQLWQGTKNNQTSGNQSQGVPIELNDPIVLALGNSIQRKEPIRSVSLHPTLPQLAAGDEQGNLTLWNFDGTLIRSIVAHGDRLNQLQYSPNGKYLLSAGREGTAKIWSVEGQLLHTLKSDPLPIDQIAISPDSQWIATAASDGMVRLWDQQGNLRGEFTSTSGSLLGLDFNRQGQWLLAVAQNGDLQSWPVTPEKERLRQLVEQGCDWLRDYLATEKQPAQTYSLEFCQPTGN” the protein production was “failed”.
With “MNSEIFRIFRKKYSEEIRNPPMNATTLPEALKLMQYIGDAIGTIRDPQELFRTVTDKLRLLFAFDSAVIITIDRERREASVFFEMLRFELPEQLRHQTRSIAGTWLEGHLDDRTVTVASIARDIPSFGADGAPLLWTLHELGMRQIVLSPLRSGGRVIGFLSFVSAEEKLWSDGDKSLLSGVSSSIAIAVSNALAYEELRQRE” the protein production was “failed”.
In the case of “MSRPEGHTLRRRLAGVVFVLVPALLIWLAVAVYDKKFTDSDPVVVETGSAGNQMHPGAEVKLRGVVVGEVRAIDATGDGARLTLAMKPGALDDVPSDVRAQMLPTTLFGERFVALVPPANPSPEPLAAGAVVPQDRSANAIELQQVLDDVLPMLTAVQPQKLSATLSAVSQALEGRGERLGDTLTLLDEHLAEFNPNLPALNRDLKELVKVSHVYADAAPDVITALTDFTTTSGTLAEQEADLAATLGATTRTAEDVTAFLHKNKDNIIRLGDTSRPTLELLAEYSPAFPCTLRTLAEFVPAMDKALGKGTDRPGIHVDVTSVASRGAYRPGRDTPVYDSGGGPRCPSVPYLGALPRPTARTAAPAAEQDLGPANSPQENDLVNELLAPAAGKSPGDLPDWSSLLVGPVYRGTEVTLGLEHHHHHH”, the protein production is reported as “failed”.
With “MTRPMPESIDERIKAALSKRGIDELYTHQYSAFQYVQKGESIVTVTPTASGKTLCYNLPVLQSIAQDETNRALYLFPTKALAQDQKSELNEIIDEMGIDIKSFTYDGDTSPAIRQKVRKAGHIVITNPDMLHSAILPHHTKWVSLFENLKYIVIDELHTYRGVFGSHVANVIRRLKRICRFYGSDPVFICTSATIANPKELGEQLTGKPMRLVDDNGAPSGRKHFVFYNPPIVNKPLNIRRSATAEVNELAKEFLKNKVQTIVFARSRVRVEIILSHIQELVKKEIGTKSIRGYRGGYLPKERREIERGLREGDILGVVSTNALELGVDIGQLQVCVMTGYPGSVASAWQQAGRAGRRHGESLIIMVANSTPIDQYIVRHPEYFFNRSPESARINPENLIILVDHLKCAAYELPFRADEEFGAMEVSDILEYLQEEAVLHRNGERYHWASESFPASNISLRSASQENVVIVDQSDIANVRIIGEMDRFSAMTLLHDEAIYLHEGVQYQVEKLDWDHKKAYVRKVDVEYYTDANLAVQLKVLEIDKTKEKSRTSLHYGDVTVNALPTIFKKIKMTTFENIGSGPIHLPEEELHTSAAWLEIKTADEDIGEKTLEQLLLGISNVLQHIVPVYIMCDRNDVHVVSQIKAAHTGLPTIFLYDHYPGGIGLAEEVFKRFSDINEAAKQLITHCPCHDGCPSCIGTEIEGIKAKERILQLLDQMSLEHHHHHH” the protein production was “not failed”.
For “MDSFKVVLEGPAPWGFRLQGGKDFNVPLSISRLTPGGKAAQAGVAVGDWVLSIDGENAGSLTHIEAQNKIRACGERLSLGLSRAQPAQSKPQKALTPPADPPRYTFAPSASLNKTARPFGAPPPTDSALSQNGQLLRQLVPDASKQRLMENTEDWRPRPGTGQSRSFRILAHLTGTEFMQDPDEEFMKKSSQVPRTEAPAPASTIPQESWPGPTTPSPTSRPPWAVDPAFAERYAPDKTSTVLTRHSQPATPTPLQNRTSIVQAAAGGGTGGGSNNGKTPVCHQCHKIIRGRYLVALGHAYHPEEFVCSQCGKVLEEGGFFEEKGAIFCPSCYDVRYAPSCAKCKKKITGEIMHALKMTWHVPCFTCAACKTPIRNRAFYMEEGAPYCERDYEKMFGTKCRGCDFKIDAGDRFLEALGFSWHDTCFVCAICQINLEGKTFYSKKDKPLCKSHAFSHV”, the protein production was “failed”.
In the case of “MAGCGANDTSSTKEKASSEKSGVTKEITASVNKMETIISKLNDSVEKGDQKEIEKKGKELNSYWLSFENDIRSDYPFEYTEIEKHLQPIYTEAQKDKPDAGKIKTESESLKASLEDLTEAKKSGKKASDQLAKAADEYKGYVKEQSDQLVKATEAFTGAVKSGDIEKSKTLYAKARVYYERIEPIAESLGDLDPKIDARENDVEEGDKWTGFHKLEKAIWKDQDISGEKATADQLLKDVKELDGSIQSLKLTPEQIVAGAMELLNEAGISKITGEEERYSRIDLVDLMANVEGSEAVYQTVKSALVKDHSDLTEKLDTEFSEFEVLMAKYKTNDQSYTSYDKLSEKQIRELSTKLTTLSETMSKIANVLLEHHHHHH”, the protein production is reported as “not failed”.
With “MNHTLQFPKAPEHLLQALNEVIPKCKLMAQQLPETAISLWLIPPVFPTERLDDDIIRRIWSDTPYWIFCWASGLAMAQWLLAEPHHVKDKVVLDFGAGSGVVAIAAKMAGAKRVICCDIDETSLNACRENALLNNVELEYLNDLYLSESVDILLAADVLYDQSNRFFLDEFLKFAPEVWVADSRVKNFSHPGYIKIDERSATTWPDLDEAKEFRNVSFYKTLEHHHHHH” the protein production was “failed”.
For “MLNFTVGPVMSSEEVRAIGAEQVPYFRTTEFSSTMLENEKFMLEYAKAPEGSKAVFMTCSSTGSMEAVVMNCFTKKDKVLVIDGGSFGHRFVQLCEIHEIPYVALKLEHGKKLTKEKLYEYDNQNFTGLLVNVDETSTAVLYDTMMIGEFCKKNNMFFVCDCVSAFLADPFNMNECGADVMITGSQKVLACPPGISVIVLAPRGVERVEKSKVRTMYFDLKDALKNQERGQTPFTPAVGILLQINERLKEIKKHGGADAEVARIASQAADFRAKIKDLPFELVSESPANGVTSVHPTTANAYDIFLKLKDEYGIWICPNGGEMKDTIFRVGHIGALTHEDNTTLVNAFKDLQKRNLL”, the protein production was “not failed”.
With “MILVPIDISDKEFTERIISHVESEARIDDAEVHFLTVIPSLPYYASLGMAYTAELPGMDELREGSETQLKEIAKKFSIPEDRMHFHVAEGSPKDKILALAKSLPADLVIIASHRPDITTYLLGSNAAAVVRHAECSVLVVR” the protein production was “not failed”.
With “MRRQPSLTLRSTLAFALVAMLTVSGAGLYLYQSIEQTVLQRSDHAVLARLDHFRKLLRYDLTMDNLKGSPQLFENMLDSEEDIFIIGEPGKPPVVSVNPQHAPLPDLPTVAQDQPLRVDDLRSGMSLQGVPLRAAAAQVMSNGVEVRLQAAHLMVKEMAMLASFRQSIYIAVALAFLITAVLGYVLLRRGLRPLRKMAAHAAAITPASLHKRLDSHDTPVELQQLSNAFNAMLDRIDDGYRRLMQFSADLAHEIRTPVGSLMGHCQVALRQDRSVDEYQALLASNLEELERISRLVESILFLARADEAQAALERQPLDLHDELQRVAGYFEGLADERNLKLSPSGRGTLLADPILLRRALSNLVANAIRYADEDSEILIRVVTVDQQWRIEVENQGPVLPHATLARLFDRFYRGDASRHERSDSNGLGLAIVTAIMHLHGGCVEVAQPAVGRICFSLVFPAA” the protein production was “failed”.
With “MTDDKKIRAAIVGYGNIGRYALQALREAPDFEIAGIVRRNPAEVPFELQPFRVVSDIEQLESVDVALVCSPSREVERTALEILKKGICTADSFDIHDGILALRRSLGDAAGKSGAAAVIASGWDPGSDSVVRTLMQAIVPKGITYTNFGPGMSMGHTVAVKAIDGVKAALSMTIPLGTGVHRRMVYVELLPGHNLEEVSAAIKADEYFVHDETHVIQVDEVDALIDMGHGVRMVRKGVSGSTQNQRMSFDMEINNPALTGQVLVCAARAAMRQQPGAYTLQEIPVIDLLPGDREQWIGKLC” the protein production was “not failed”.
For “MGDPQVNDTLAPSARHEGDALASAVAKVKRHVLPLFVIMFIVNYLDRVNIGFVRPHLESDLGISAAAYGFGAGLFFIGYALFEVPSNMLLQKVGARLWLTRIMFTWGLVATAMAFVQNETQFYVLRFLLGVAEAGFFPGVIYYFTRWLPAAERGKAIAIFLSGSALASLISGPLAGALMQIQGLGLHGWQWMLFIEGMASVALCFFVFFWLDSKPQDAKWLSKAEQDALVATIDREQQAREAIGAVRPSAWNLLKDRQIVLFCLIYFCIQLTIYAATFWLPSIIKRMGDLSDMQVGFFNSIPWLISILAMYAFAAGSARWKFQQAWVAGALLVAATGMFMSTTGGPVFAFVAVCFAAIGFKSASSLFWPIPQGYLDARIAAAVIALINSVGNLGGFVAPTTFGLLEQQTGSIQGGLYGLAVTSVLAAIAIFFVRTRPKGAPSDDLKAPSALGQTH”, the protein production was “failed”.
In the case of “MNPPSGPRVPPSPTQEPSCMATPAPPSWWDSSQSSISSLGRLPSISPTAPGTWAAAWVPLPTVDVPDHAHYTLGTVILLVGLTGMLGNLTVIYTFCRSRSLRTPANMFIINLAVSDFLMSFTQAPVFFTSSLYKQWLFGETGCEFYAFCGALFGISSMITLTAIALDRYLVITRPLATFGVASKRRAAFVLLGVWLYALAWSLPPFFGWSAYVPEGLLTSCSWDYMSFTPAVRAYTMLLCCFVFFLPLLIIIYCYIFIFRAIRETGRALQTFGACKGNGESLWQRQRLQSECKMAKIMLLVILLFVLSWAPYSAVALVAFAGYAHVLTPYMSSVPAVIAKASAIHNPIIYAITHPKYRVAIAQHLPCLGVLLGVSRRHSRPYPSYRSTHRSTLTSHTSNLSWISIRRRQESLGSESEVGWTHMEAAAVWGAAQQANGRSLYGQGLEDLEAKAPPRPQGHEAETPGKTKGLIPSQDPRM”, the protein production is reported as “failed”.
